# Laboratory results taken from patent US20240116997A1 (BRIGHT PEAK THERAPEUTICS, published 2024).
# “And” between values parts separate entries of the source, which are not always exact repeats. Identical values can stand only once.
# T1: IL-18 receptor (IL-18Rαβ) on cells (UniProt Q13478 19-541; O95256 20-599, limits assumed)
# T1 sequence (looked up) 1: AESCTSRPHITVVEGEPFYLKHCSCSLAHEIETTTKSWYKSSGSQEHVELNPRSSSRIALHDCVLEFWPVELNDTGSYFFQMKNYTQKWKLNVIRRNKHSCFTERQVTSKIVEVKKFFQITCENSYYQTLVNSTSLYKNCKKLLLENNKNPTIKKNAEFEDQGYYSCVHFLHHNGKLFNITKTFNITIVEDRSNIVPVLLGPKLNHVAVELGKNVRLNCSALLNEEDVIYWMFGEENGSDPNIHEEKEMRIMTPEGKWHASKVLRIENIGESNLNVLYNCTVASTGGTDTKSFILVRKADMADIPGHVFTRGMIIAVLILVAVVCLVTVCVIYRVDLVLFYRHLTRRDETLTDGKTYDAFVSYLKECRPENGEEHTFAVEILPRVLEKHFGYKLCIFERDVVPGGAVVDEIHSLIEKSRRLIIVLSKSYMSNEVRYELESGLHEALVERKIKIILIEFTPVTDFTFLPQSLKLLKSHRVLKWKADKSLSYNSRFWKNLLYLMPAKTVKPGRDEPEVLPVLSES
# T1 sequence (looked up) 2: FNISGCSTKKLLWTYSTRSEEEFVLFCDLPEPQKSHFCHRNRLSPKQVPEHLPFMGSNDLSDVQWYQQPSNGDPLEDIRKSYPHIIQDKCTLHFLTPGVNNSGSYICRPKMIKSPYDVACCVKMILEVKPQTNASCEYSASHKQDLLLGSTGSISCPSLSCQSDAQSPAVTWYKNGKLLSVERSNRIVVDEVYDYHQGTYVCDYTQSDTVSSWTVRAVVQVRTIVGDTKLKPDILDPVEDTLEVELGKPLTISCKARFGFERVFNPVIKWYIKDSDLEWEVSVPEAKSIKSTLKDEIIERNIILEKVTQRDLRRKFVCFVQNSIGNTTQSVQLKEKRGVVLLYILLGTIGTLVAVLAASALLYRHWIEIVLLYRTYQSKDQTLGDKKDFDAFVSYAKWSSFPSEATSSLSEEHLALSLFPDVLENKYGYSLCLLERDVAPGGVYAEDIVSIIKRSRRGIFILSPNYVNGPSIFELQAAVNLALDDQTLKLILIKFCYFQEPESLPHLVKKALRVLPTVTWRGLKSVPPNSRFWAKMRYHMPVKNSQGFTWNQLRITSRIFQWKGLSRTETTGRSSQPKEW
# How the values were obtained:
# [1] = target: T1, IL-18 receptor (IL-18Rαβ) on cells; experiment: cell-based or functional assay
# [2] = target: T1, IL-18 receptor (IL-18Rαβ) on cells; experiment: cell-based or functional assay; remark: listed apart in the source
Binder,"EC50 (pM), HEK-Blue IL-18R reporter assay [1]","EC50 (nM), IFNγ induction, NK-92 cells [2]"
"C144 (V11I, C38A, K53A, T63A, C76A, C127A) (ligand) YFGKLESKLSIIRNLNDQVLFIDQGNRPLFEDMTDSDARDNAPRTIFIISMYADSQPRGMAVAISVKCEKISTLSAENKIISFKEMNPPDNIKDTKSDIIFFQRSVPGHDNKMQFESSSYEGYFLAAEKERDLFKLILKKEDELGDRSIMFTVQNED",0.17 pM,0.087 nM
"C149 (V11I, E31A, C38A, K53A, C76A, C127A) (ligand) YFGKLESKLSIIRNLNDQVLFIDQGNRPLFADMTDSDARDNAPRTIFIISMYADSQPRGMAVTISVKCEKISTLSAENKIISFKEMNPPDNIKDTKSDIIFFQRSVPGHDNKMQFESSSYEGYFLAAEKERDLFKLILKKEDELGDRSIMFTVQNED",6.6 pM,0.015 nM
"IL-18 polypeptide SEQ ID NO: 5 (E6K, V11I, C38A, K53A, T63A, C68A, C76A, M86C, C127A) (ligand) YFGKLKSKLSIIRNLNDQVLFIDQGNRPLFEDMTDSDARDNAPRTIFIISMYADSQPRGMAVAISVKAEKISTLSAENKIISFKECNPPDNIKDTKSDIIFFQRSVPGHDNKMQFESSSYEGYFLAAEKERDLFKLILKKEDELGDRSIMFTVQNED",–,0.075 nM
"C148 (F2A, V11I, C38A, K53A, C76A, C127A) (ligand) YAGKLESKLSIIRNLNDQVLFIDQGNRPLFEDMTDSDARDNAPRTIFIISMYADSQPRGMAVTISVKCEKISTLSAENKIISFKEMNPPDNIKDTKSDIIFFQRSVPGHDNKMQFESSSYEGYFLAAEKERDLFKLILKKEDELGDRSIMFTVQNED",7.28 pM,0.187 nM
"C143 (V11I, C38A, K53A, C76A, C127A) (ligand) YFGKLESKLSIIRNLNDQVLFIDQGNRPLFEDMTDSDARDNAPRTIFIISMYADSQPRGMAVTISVKCEKISTLSAENKIISFKEMNPPDNIKDTKSDIIFFQRSVPGHDNKMQFESSSYEGYFLAAEKERDLFKLILKKEDELGDRSIMFTVQNED",0.98 pM,0.012 nM
"C145 (V11I, C38A, K53A, S55A, C76A, C127A) (ligand) YFGKLESKLSIIRNLNDQVLFIDQGNRPLFEDMTDSDARDNAPRTIFIISMYADAQPRGMAVTISVKCEKISTLSAENKIISFKEMNPPDNIKDTKSDIIFFQRSVPGHDNKMQFESSSYEGYFLAAEKERDLFKLILKKEDELGDRSIMFTVQNED",3.63 pM,0.037 nM
"IL-18 polypeptide SEQ ID NO: 4 (E6K, C38A, K53A, C68A, M86C) (ligand) YFGKLKSKLSVIRNLNDQVLFIDQGNRPLFEDMTDSDARDNAPRTIFIISMYADSQPRGMAVTISVKAEKISTLSCENKIISFKECNPPDNIKDTKSDIIFFQRSVPGHDNKMQFESSSYEGYFLACEKERDLFKLILKKEDELGDRSIMFTVQNED",–,0.022 nM
"C147 (V11I, C38A, K53A, D54A, C76A, C127A) (ligand) YFGKLESKLSIIRNLNDQVLFIDQGNRPLFEDMTDSDARDNAPRTIFIISMYAASQPRGMAVTISVKCEKISTLSAENKIISFKEMNPPDNIKDTKSDIIFFQRSVPGHDNKMQFESSSYEGYFLAAEKERDLFKLILKKEDELGDRSIMFTVQNED",1 pM,0.256 nM
"C152 (V11I, S36A, C38A, K53A, C76A, C127A) (ligand) YFGKLESKLSIIRNLNDQVLFIDQGNRPLFEDMTDADARDNAPRTIFIISMYADSQPRGMAVTISVKCEKISTLSAENKIISFKEMNPPDNIKDTKSDIIFFQRSVPGHDNKMQFESSSYEGYFLAAEKERDLFKLILKKEDELGDRSIMFTVQNED",0.25 pM,0.175 nM
"IL-18 polypeptide SEQ ID NO: 9 (E6K, C38A, K53A, C68A, D98C) (ligand) YFGKLKSKLSVIRNLNDQVLFIDQGNRPLFEDMTDSDARDNAPRTIFIISMYADSQPRGMAVTISVKAEKISTLSCENKIISFKEMNPPDNIKDTKSCIIFFQRSVPGHDNKMQFESSSYEGYFLACEKERDLFKLILKKEDELGDRSIMFTVQNED",–,0.069 nM
"C151 (V11I, D35A, C38A, K53A, C76A, C127A) (ligand) YFGKLESKLSIIRNLNDQVLFIDQGNRPLFEDMTASDARDNAPRTIFIISMYADSQPRGMAVTISVKCEKISTLSAENKIISFKEMNPPDNIKDTKSDIIFFQRSVPGHDNKMQFESSSYEGYFLAAEKERDLFKLILKKEDELGDRSIMFTVQNED",13.1 pM,0.033 nM
"C146 (SEQ ID NO: 79; V11I, C38A, M51G, K53A, C76A, C127A) (ligand) YFGKLESKLSIIRNLNDQVLFIDQGNRPLFEDMTDSDARDNAPRTIFIISGYADSQPRGMAVTISVKCEKISTLSAENKIISFKEMNPPDNIKDTKSDIIFFQRSVPGHDNKMQFESSSYEGYFLAAEKERDLFKLILKKEDELGDRSIMFTVQNED",0.8 pM,0.079 nM
"C150 (V11I, T34A, C38A, K53A, C76A, C127A) (ligand) YFGKLESKLSIIRNLNDQVLFIDQGNRPLFEDMADSDARDNAPRTIFIISMYADSQPRGMAVTISVKCEKISTLSAENKIISFKEMNPPDNIKDTKSDIIFFQRSVPGHDNKMQFESSSYEGYFLAAEKERDLFKLILKKEDELGDRSIMFTVQNED",0.7 pM,0.061 nM

# Continued, values first:
"EC50 (pM), HEK-Blue IL-18R reporter assay [1]","EC50 (nM), IFNγ induction, NK-92 cells [2]",Binder
0.79 pM,0.144 nM,"IL-18 polypeptide SEQ ID NO: 42 (E06K, K53A, S55A, T63A) (ligand) YFGKLKSKLSVIRNLNDQVLFIDQGNRPLFEDMTDSDCRDNAPRTIFIISMYADAQPRGMAVAISVKCEKISTLSCENKIISFKEMNPPDNIKDTKSDIIFFQRSVPGHDNKMQFESSSYEGYFLACEKERDLFKLILKKEDELGDRSIMFTVQNED"
0.203 pM,0.015 nM,"IL-18 polypeptide SEQ ID NO: 60 (E6K, C38Q, K53A) (ligand) YFGKLKSKLSVIRNLNDQVLFIDQGNRPLFEDMTDSDQRDNAPRTIFIISMYADSQPRGMAVTISVKCEKISTLSCENKIISFKEMNPPDNIKDTKSDIIFFQRSVPGHDNKMQFESSSYEGYFLACEKERDLFKLILKKEDELGDRSIMFTVQNED"
0.17 pM,0.006 nM,"IL-18 polypeptide SEQ ID NO: 62 (E6K, C38A, K53A, C127A) (ligand) YFGKLKSKLSVIRNLNDQVLFIDQGNRPLFEDMTDSDARDNAPRTIFIISMYADSQPRGMAVTISVKCEKISTLSCENKIISFKEMNPPDNIKDTKSDIIFFQRSVPGHDNKMQFESSSYEGYFLAAEKERDLFKLILKKEDELGDRSIMFTVQNED"
1.77 pM,0.0268 nM,"IL-18 polypeptide SEQ ID NO: 50 (E06K, K53A, T63A) (ligand) YFGKLKSKLSVIRNLNDQVLFIDQGNRPLFEDMTDSDCRDNAPRTIFIISMYADSQPRGMAVAISVKCEKISTLSCENKIISFKEMNPPDNIKDTKSDIIFFQRSVPGHDNKMQFESSSYEGYFLACEKERDLFKLILKKEDELGDRSIMFTVQNED"
–,> 55 nM,"IL-18 polypeptide SEQ ID NO: 35 (Y01G, F02A, E06K, M51G, K53A, D54A, S55A, T63A) (ligand) GAGKLKSKLSVIRNLNDQVLFIDQGNRPLFEDMTDSDCRDNAPRTIFIISGYAAAQPRGMAVAISVKCEKISTLSCENKIISFKEMNPPDNIKDTKSDIIFFQRSVPGHDNKMQFESSSYEGYFLACEKERDLFKLILKKEDELGDRSIMFTVQNED"
0.268 pM,0.045 nM,"IL-18 polypeptide SEQ ID NO: 59 (E6K, C38A, K53A) (ligand) YFGKLKSKLSVIRNLNDQVLFIDQGNRPLFEDMTDSDARDNAPRTIFIISMYADSQPRGMAVTISVKCEKISTLSCENKIISFKEMNPPDNIKDTKSDIIFFQRSVPGHDNKMQFESSSYEGYFLACEKERDLFKLILKKEDELGDRSIMFTVQNED"
9.12 pM,0.962 nM,"IL-18 polypeptide SEQ ID NO: 54 (E06K, K53A, C38S, C68S, C76S, C127S, K70C) (ligand) YFGKLKSKLSVIRNLNDQVLFIDQGNRPLFEDMTDSDSRDNAPRTIFIISMYADSQPRGMAVTISVKSECISTLSSENKIISFKEMNPPDNIKDTKSDIIFFQRSVPGHDNKMQFESSSYEGYFLASEKERDLFKLILKKEDELGDRSIMFTVQNED"
0.86 pM and 0.53 pM,0.138 nM,"IL-18 polypeptide SEQ ID NO: 57 (E6K, C38S, K53A) (ligand) YFGKLKSKLSVIRNLNDQVLFIDQGNRPLFEDMTDSDSRDNAPRTIFIISMYADSQPRGMAVTISVKCEKISTLSCENKIISFKEMNPPDNIKDTKSDIIFFQRSVPGHDNKMQFESSSYEGYFLACEKERDLFKLILKKEDELGDRSIMFTVQNED"
